Results on 22 sequences are retold here after a protein production outcome set (Wang et al. 2014).

The series can be described thus: label from the status in PepcDB records.
On to “EEAGRSATEIARAVAAVSAPIDLVAAGAAIDSGVNRLIYTRHFLRTMIPNALAKWQQHPGLFDRELVQRATTLREFDDAFTAPLHGFTGVDDYWTRASSKPHLHKITIPALVVNARNDPFVPAVSLPTQDEVGEMVTLWQPDEGGHVGFATGPWPGRIAAMPEAVSDWLGAV”, for which the protein production result is “failed”. The value for “MRRSKYFTPNEVSLHNTINDIWVSYLGKVYDLTPLLEAYKGDVLLKPIIECAGKDISHWFDPKTKDILTHVDPLTGCIKYYTPRGRFIHIPPPCPRTDWANNFGKPWWKDNRYEVGLLSAKTRWIRIINTLTSQEQKLEVCSEESLDEILHRYLFYNSHAASYTWKLSGINLDMSKTLSENGIPEEDEFYCGSPDCNLFSPSICLYFNDDLTEL” was “failed”; that for “MTVVSVDKDVEALSFSIVAEFDADVKRVWAIWEDPRQLERWWGPPTWPATFETHEFTVGGKAAYYMTGPDGTKARGWWQFTTIEAPDHLEFDDGFADEHGAPVDELGVTHATVKLEPLENRTRMTIISTFESEEQMQKMAEMGMEEGMREAIEQIDAVLSEPANALEHHHHHH” was “not failed”.

Consider “QKQYWVCNSSDASISYTYCDKMQYPISINVNPCIELKGSKGLLHIFYIPRRDLKQLYFNLYITVNTMNLPKRKEVICRGSDDDYSFCRALKGETVNTTISFSFKGIKFSKGKYKCVVEAISGSPEEMLFCLEFVILHQPNSN”, for which the protein production entry is given as “failed”. In the case of “MGDIEGINIQSMASEIKKLRHKIETLEQQNSDLEIALTTAVEHGDAIESELFSTNDRLRGEVRERVIAERRLSKVLTVVSQQKDDLEVLVQTITEHSDEIDTQWLSRYSEVEALARLDPLTSIANRRMLDSALEQEWTRSLRSGSPLSVAMCDLDLFKAYNDRYGHNRGDQVLIAFAEILRGCSRRPPDLPARVGGEEFLILFPETDLAGARQVAEAIRLALWTLAIPHADSPHGRVTVSIGLACVFPRPEGDPADLIAQADFRLYEAKAHNRNTVRA”, the protein production result is “failed”. “MSRGDKMLKFEIKARDGAGRIGKLEVNGKKIETPAIMPVVNPKQMVVEPKELEKMGFEIIITNSYIIYKDEELRRKALELGIHRMLDYNGIIEVDSGSFQLMKYGSIEVSNREIIEFQHRIGVDIGTFLDIPTPPDAPREQAVKELEITLSRAREAEEIKEIPMNATIQGSTYTDLRRYAARRLSSMNFEIHPIGGVVPLLESYRFRDVVDIVISSKMALRPDRPVHLFGAGHPIVFALAVAMGVDLFDSASYALYAKDDRYMTPEGTKRLDELDYFPCSCPVCSKYTPQELREMPKEERTRLLALHNLWVIKEEIKRVKQAIKEGELWRLVDERARSHPKLYSAYKRLLEHYTFLEEFEPITKKSALFKISNESLRWPVVRRAKERAKSINERFGELVEHPIFGRVSRYLSLTYPFAQSEAEDDFKIEKPTKEDAIKYVMAIAEYQFGEGASRAFDDAKVELSKTGMPRQVKVNGKRLATVRADDGLLTLGIEGAKRLHRVLPYPRMRVVVNKEAEPFARKGKDVFAKFVIFADPGIRPYDEVLVVNENDELLATGQALLSGREMIVFQYGRAVKVRKGVE”: the protein production result was “not failed”. As for “MFVNQHGYSFGLSCALDGLSKREKDAQRQNKLLELGLLTNRNSTFFEEATQTLARNLGLPICLVGLMVEDEINIVSAVGIYRLGVGNPNLVSRQISRNDAYCTLVVDSAMPLMITDALAEPFFAEGELYQRYGIRSYLGTPLLTRDGVCLGTLAALDFSPHDFREPDVALMNMTARWCMGEIEH”, the entry is “failed”; as for “MKQFVLFFISLFLLGVGARSQEMYQKKVFISSRGDSLNYRLLRPEVEKTGLQYPLVLFLHGAGERGSDNEKQLTHGGQMFLNPVNREKYPAFVLVPQCPEKDYWAYTSRPSSFIPSEMPVGQEITPVLRAVKELLDTYLDLPQVDRNRIYVVGLSMGGMATYDLAVRFPDTFAAAVPICGTVNPVRLADAANVRFRIFHGDADNVVPVEGSREAYKALKNLGAEVEYIEFPGCNHGSWNPAFNYPGFMEWLFAQRKR”, “failed”; as for “SDNEFPDFDYQTVYFANQYGLRTIELGESEFVDNTLDNQHKMVIKAAWGGGYTNRNNVVINFKVDESLCDNLYFKDTDQPLVPMPASYYTLASDRIAIPKGQIMAGVEVQLTDDFFADEKSISENYVIPLLMTNVQGADSILQGKPVVENPVLTNAGDWSILPQNFVLYAVKYVNPWHGEYLRRGIDHATVAGTSKDIIRHEQFVENDEVVNISTKSMKDNLLTLKTKDESGKDISYTVRLSFAEDGSCTVHSGSQNVVVSGSGKFVSKGEKNSLGGKDRNAIYLDYTVNLTDNNIQLATKDTLVLRTRNVYGGKSLEVVRK”, “not failed”.

As to “MNQTFIYYTVLFLIIFITISNLVENYRYSPKKIKNIIGIAFLLQIIRIVSLIALALVSDQRYISLFKYVGFLDIIYIPLMALIAFYILLRSDKINFQFFKFAPMVLTGFYIGVITIFKPFFKMSWEYGYVITTEKQILLKSIYILFLVAILSFLILFKKENHSDKKGIVFLGVTLAFIIIENSLELLGVRFLNGAIISELILCILGFYIVLTFKKNRISIRDCIKS”, the protein production result was “failed”. As for “MANPLYHKHIISINDLSRDELELVLRTAASLKKTPQPELLKHKVIASCFFEASTRTRLSFETSIHRLGASVVGFSDSSNTSLGKKGETLADTMSVISTYVDAIVMRHPQEGASRLAAQFSGNVPIVNAGDGANQHPTQTLLDLFTIQETQGRLDNINIAMVGDLKYGRTVHSLTQALAKFNGNHFFFIAPDALAMPAYILQMLEEKEIEYSLHESLEEVVPELDILYMTRVQKERLDPSEYANVKAQFILRSSDLTGARDNLKVLHPLPRIDEITTDVDKTPYAYYFQQAGNGIFARQALLALVLNAELAL”, the entry is “not failed”; as for “MDTAIILGLLVAVFYGVGTFFAKIVCEKNPLFQWIVVNIVGIILCLIILLKYKNIIITDQKILTYAIISAVLVVIGSLLLYYALYKGKASIVVPLSSIGPAITVALSILFLKETLTLPQMIGIVLIIIGIILLSISN”, “failed”; as for “MIYWLSLASAAFIGLAALVWKMSAIARENRVLKAEFSLGRLKKELNVFFISDIHRRTVSEDIICEVKERGVQLVIIGGDLAEGGVPYTRIEENIKRLSSLGKTYFVWGNNDYEVDQERLLEIFKTYGVTPLRNASVLHDHQGQTVNICGVDDIRLELDDYPAALGGVQPGFPTVLVSHNPEIHHQIQEADGIDLILSGHTHGGQIRFGRFGLCEIGGTGTVFKAPYLISNGYGTSKLPLRLGARPETHLINLVPGPRMEGN”, “failed”. On to “MRWVKAGELPMEAAYGATVSLPDRLIFIGGSNSSDRFSSVLSFSFDCMKDSGLICETLPPLPHAVDNMSATLLGDTLYVLGGNRNGIPSSSMFSLCLDNYSAGWTEVPFPGRPRVQPVCSSLLGKLYVFGGFTSGGDASVSTDGLCYHPESGQWQVVKAPLTTKGEPLTLTGGASVSYGDVLLICAGGVNRDIFEDAISARYQMVRESEYLLQPIEWYRFNDQLLAYNVRSGEWIRIGVPSPMLARAGSSLVVFGDILFYIGGELKPGVLEHHHHHH”, for which the protein production result was “failed”. As to “MAHGIPSQGKVTITVDEYSSNPTQAFTHYNINQSRFQPPHVHMVDPIPYDTPKPAGHTRFVCISDTHSRTDGIQMPYGDILLHTGDFTELGLPSEVKKFNDWLGNLPYEYKIVIAGNHELTFDKEFMADLVKQDYYRFPSVSKLKPEDFDNVQSLLTNSIYLQDSEVTVKGFRIYGAPWTPWFNGWGFNLPRGQSLLDKWNLIPEGIDILMTHGPPLGFRDWVPKELQRVGCVELLNTVQRRVRPKLHVFGGIHEGYGIMTDGYTTYINASTCTVSFQPTNPPIIFDLPNPQGS”, the protein production result is “failed”. As for “MVLEYVYCLLAFCLYFMAYCINPDCSQRENPDTSAVCQNCGTPLILQNRYRLRHFLRTDRGSYTEVFAIEDLVNRDQPKVLKSLKEVTPQLERLFQQEASILNTLRHPGLPIGEALFPLVLNTGRQLWCFVMEKIPGEDLQTWLSHHQYVTSYKTALDWLKQLTQILQFVHEEKFFHRDIKPANIMVCPDGKLVLIDFGAARKVTQTIINRESVTIVHSLGYTAPEQRDGHAVVQSDFYALGRTLIYLLTGIDPTGDRAQDLLNWSKYIQDPKTPKKFISLLQVMTDSHPYHRPPTAQAILEKIEKIDQHSHQWPKLLLSATCGVLLLFAGKSLYQEITLPRTCDNILNDYLSCGEESLTPSSFWGNSQPPPAKQLGMEQYRNRNFGAAVNFLETAFQQESDPETLIYLNNAKIHQQFPANQIYTIAVAVPLERRTDIGREILRGVAQAQTEALKKGRALRIIIADDSNREDSKTGNNARKIAQHLVKYRDLLAVLGHYSSEATKNSLPIYSQARVVLISATSTSQNLKDPFFFRTVPSDRIAAQKMVTYLLSALKQNQVAIFYSRGSEYAESLSQAVRESTKSLPLKVIDHQAAFNLASDRFNAITALNQAQTQGAKAIVLIPDAGVGLYNAIPNALRVIQSNINQVWIVAGDSLYSSDSFTSEKAFSSPEIKYTAWAVFWHPLNEINSTFVKEVQNLWKIDILSILSNTNITWRTATSYDATLVLSQAITQNPTRLGIKKTLSQPQFSVTGATGVIQFAGSDRQNGKITMVRVQRNCDDNGFFFIPSDRSLQCQ”, the entry is “failed”; as for “MAWFLLVIAGIEEIIAAIAMKYIDGTRKKWPIIVMTVGFGLSFYCLSQAMIVLPAGVAYAVWTGIGSIGVSAVGLIWFKERFQLSQVISLCLILAGVIGLRLTSSS”, “failed”. Regarding “LGTLFFSLEYNFERKAFVVNIKEARGLPAMDEQSMTSDPYIKMTILPEKKHKVKTRVLRKTLDPAFDETFTFYGIPYTQIQELALHFTILSFDRFSRDDIIGEVLIPLSGIELSEGKMLMNREII”, the protein production entry is listed as “not failed”. For the sequence “FLCMIPMFLYDFSSDKVIALIARILYFSDYFIVILFLIFIINSTKYSPFVLENVKRFKVMGCCLLINTIIECINGYNLNTNNIRIFGTDSGGISPLMVISFIFALMCFVIAETFDKAIKIKEDNDLTI”, the protein production entry is reported as “failed”. On to “MKRSEKKSMSSALKNGIMERTQPEKVVQMQGTADLSTSKLGTKKYWDELYALELENFRRNPQDTGDCWFSDSDAEQKMIDFLVDNIGAYRISENASVVDLGTGNGHMLFELHQTEFQGKLVGIDYSEESVKLASNIAEATGVDNFISFQQADIFSGDWKPGKYDIVLDKGTLDAISLSGMKINGKLDVVDVYAGVVERILKKDGIFLITSCNFTQDELVKIIETDNLKMWKTIKYPVFQFGGVQGATICSVAFVKQN”, for which the protein production result was “failed”.

Take “MKFTKNQFIWLVVLFFSCFLIYTYWETVVSICNKIFVASQPFLFGAGIAFVVNILMSFYEKILIKFIPFGFITKIKRPVSLLLAFATIGLIFTWVVFTVLPDLIDSINTLISQDRSAINNLINWLLKNKSLQKIIQDLGGVTQVRELINSYSAQLLQQIMNGLTNFLTSLTSLPSTLINLFISIVFSCYVLVGKEKLGSQVNRLVDVYLGRYGKTFHYVVAILNNRFHNFFVYQSIEACILGTLCYIGMRIFNFPYAATISILIGFSAMIPVLGAYIGVTIGTILIMTHSVTLALLFVAYVVILQQFEGNLIYPYVVGGSTGLPVVWVILAITIGSALGGILGMLVSVPVAATLYQIVKDNVVTREKAKAVASLENSD”: the protein production result is “not failed”. Consider “MAHHHHHHSLDAAAATLPRKSGSVDRLVRLAEADMAGVNRLITDRMQSDVAIIPALAEHLIAAGGKRLRPLMTVAAARLAGADNDHFQKLAAAVEFIHTATLLHDDVVDGSQLRRGKVAAHLIWGGAQSVLVGDFLFARAFELMVETNSMKALEILARASRVIAEGEVLQLMRSHDLNLSQAVYLEIIQAKTAELFAAASEAGAVSAGVDVAKSEALRDYGLNLGLAFQLADDALDYGGATETLGKNAGDDFREGKATLPLLLAIARSGPREAEFWERAIGRREQTEADFRRARELIIGSGALDATLDLAADYADKAKAALAMFPANDWREALEELADFAVSRRA”, for which the protein production entry is listed as “not failed”.
